Laboratory results: patent US9180187B2, “Medicament for treating and/or preventing cancer” (TORAY INDUSTRIES, INC., priority 2010, dated 2015)

Experiments:
Test in all cases: ADCC activity, chromium-51 release
[1] = system: human breast cancer cell line MDA-MB-157; assay type: cell-based; settings: 1 μg antibody, mouse lymphocytes 2×10^5 cells, 10^3 target cells, 4 hours
Method: (§1) The above-selected anti-CAPRIN-1 monoclonal antibodies #1 to #11 were evaluated for their cytotoxic activities against cancer cells (ADCC activity). Hybridomas producing the monoclonal antibodies #1 to #11 were each cultured using hybridoma SFM medium (Invitrogen). The thus obtained supernatant was purified using Hitrap ProteinA Sepharose FF (GE HealthCare), replaced with PBS(−), and then filtered through 0.22 μm filter (Millipore). The obtained filtrates were used as antibodies for assay. The human breast cancer cell line MDA-MB-157 (10^6 cells) was collected in a 50-ml centrifuge tube, to which 100 μCi chromium(Cr)-51 was then added, and incubated at 37° C. for 2 hours. Subsequently, the cells were washed 3 times with RPMI1640 medium containing 10% FBS, and then dispensed into each well of a 96-well V-bottom plate at 10^3 cells per well. The thus obtained cells are used as target cell. The above purified antibodies (1 μg each) were added to the cells. Separately, mouse lymphocytes separated from the mouse spleen were further added (2×10^5 cells) and then cultured under conditions of 37° C. and 5% CO2 for 4 hours. After culture, the amount of chromium(Cr)-51 released from cytotoxically impaired tumor cells in a culture supernatant was measured, so that the ADCC activity of each anti-CAPRIN-1 antibody against cancer cells was calculated. […] On the other hand, similar procedures were performed using the monoclonal antibodies (which were prepared in Example 2) reactive with the CAPRIN-1 protein itself, but not reactive with the surface of cancer cells, no cytotoxic activity was observed (see FIG. 1). […] Similarly, the anti-CAPRIN-1 antibodies were examined for ADCC activity against other human cancer cell lines including glioma cell lines (T98G and U373), lung cancer cell lines (A549 and QG56), renal cancer cell lines (Caki-1 and ACHN), a uterine cervix cancer cell line (SW756), a bladder cancer cell line (T24), an esophageal cancer cell line (KYSE180), gastric cancer cell lines (MNK28 and MNK45), a colorectal cancer cell line (SW480), a leukemia cell line (AML5), and a lymphoma cell line (Ramos).

SW756 = assay type: cell-based, human; settings: uterine cervix cancer cell line
Method: as §1

ACHN = assay type: cell-based, human; settings: renal cancer cell line
Method: as §1

AML5 = assay type: cell-based, human; settings: leukemia cell line
Method: as §1

U373 = assay type: cell-based, human; settings: glioma cell line
Method: as §1

T98G = assay type: cell-based, human; settings: glioma cell line
Method: as §1

T24 = assay type: cell-based, human; settings: bladder cancer cell line
Method: as §1

MNK45 = assay type: cell-based, human; settings: gastric cancer cell line
Method: as §1

QG56 = assay type: cell-based, human; settings: lung cancer cell line
Method: as §1

Ramos = assay type: cell-based, human; settings: lymphoma cell line
Method: as §1

KYSE180 = assay type: cell-based, human; settings: esophageal cancer cell line
Method: as §1

SW480 = assay type: cell-based, human; settings: colorectal cancer cell line
Method: as §1

MNK28 = assay type: cell-based, human; settings: gastric cancer cell line
Method: as §1

A549 = assay type: cell-based, human; settings: lung cancer cell line
Method: as §1

Caki-1 = assay type: cell-based, human; settings: renal cancer cell line
Method: as §1

B1: monoclonal antibody #9: mouse anti-CAPRIN-1 monoclonal antibody; heavy chain variable region SEQ ID NO: 103, light chain variable region SEQ ID NO: 107 (antibody, listed as Mus musculus, V domains shown)
VH: PRASLGVSETLLCTSGFTFTDYYMSWVRQPPGKALEWLGFIRNKANGYTTEYSASVKGRFTISRDNSQSILYLQMNTLRAEDSATYYCARANWAFDYWGQGTTVTVSSK
VL: SGDRVSLSCRASQSISNYLHWYQQKSHESPRLLIKYASQSISGIPSRFSGSGSGTDFTLSINSVETEDFGMYFCQQSNSWPYTFGGGTKLEIKQ
- ADCC activity (cytotoxic activity) against MDA-MB-157 [1]: 32.4%
- ADCC activity against SW756 (SW756): ≥ 16%
- ADCC activity against ACHN (ACHN): ≥ 14%
- ADCC activity against AML5 (AML5): ≥ 10%
- ADCC activity against U373 (U373): ≥ 16%
- ADCC activity against T98G (T98G): ≥ 12%
- ADCC activity against T24 (T24): ≥ 18%
- ADCC activity against MNK45 (MNK45): ≥ 10%
- ADCC activity against QG56 (QG56): ≥ 20%
- ADCC activity against Ramos (Ramos): ≥ 10%
- ADCC activity against KYSE180 (KYSE180): ≥ 22%
- ADCC activity against SW480 (SW480): ≥ 17%
- ADCC activity against MNK28 (MNK28): ≥ 15%
- ADCC activity against A549 (A549): ≥ 24%
- ADCC activity against Caki-L (Caki-1): ≥ 23%
